Reference: the supplement of paper PMC12764529
± gives the half width of the 95% confidence interval.

Tests used:
[1] = folding stability dG unfold (combined trypsin and chymotrypsin); higher = more stable
In short: (§1)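 Designed mini-proteins (under 80 residues, no cysteine) in a PA-tagged cDNA display construct were digested with trypsin and chymotrypsin. Each protease was used at 11 concentrations (threefold dilutions) plus a no-protease condition, followed by sequencing. K50 was inferred by Bayesian fitting of sequencing counts, and unfolding free energy was derived against a sequence-predicted unfolded-state K50 and a shared folded-state K50, per protease or combined. Only designs with AlphaFold2 dimer inter-PAE above 15 were kept.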

[2] = folding stability dG unfold from trypsin proteolysis; higher = more stable
In short: as §1

[3] = folding stability dG unfold from chymotrypsin proteolysis; higher = more stable
In short: as §1

Row | Sequence | folding stability dG unfold [1] | folding stability dG unfold [2] | folding stability dG unfold [3]
1 | SPNWKIVEITEMERTDGRVTIKIKIKVPDGRIYIFMPNGKIIEEVPLGDDVELTITFPPNNWPIYIFVLDSA [r9_917_TrROS] | 4.48 ± 0.18 kcal/mol | 3.47 ± 0.093 kcal/mol | 4.69 ± 0.19 kcal/mol
2 | SPPETETYPIPNPEDGKPLMDITIERNPENGNWKVEIYWPGGKKKEVEFPPNETIPIDDLPPGFWVTITRSA [r9_1150_TrROS] | 1.21 ± 0.16 kcal/mol | 0.532 ± 0.12 kcal/mol | 1.56 ± 0.069 kcal/mol
3 | SPPGWKVIPITLKFRAPIKSVEEAKSQVREIAREIANRHGFPIQVNVTVEYDPEDGWVKVEVPISIWVPKSA [r9_741_TrROS] | 2.97 ± 0.09 kcal/mol | 2.75 ± 0.081 kcal/mol | 3.234 ± 0.022 kcal/mol
4 | SPSADAKVRVEPLPGPGYLATLEDGSLVLVHPDGTVIEVTETKVRIRVFTPDKPLLELEIEIPPPAPDEPSA [r9_901_TrMRF] | 1.18 ± 0.16 kcal/mol | 0.803 ± 0.095 kcal/mol | 1.26 ± 0.066 kcal/mol
5 | SPVTVTITLPNGETITLTFPAGMTAEELKAAVLAELKRLLPPGAKIEVVDIEVTEVVAPGETVTVTVRLTSA [r9_178_TrROS_Hall] | 4.16 ± 0.11 kcal/mol | 3.36 ± 0.13 kcal/mol | 4.61 ± 0.15 kcal/mol
6 | SPYFMFPIDDIKVEKERDPDDGKKTYEMRVEGPNGNPFRIEFNPKDGMIHIEFPPGMKLRPGDTFELTIRSA [r9_509_TrROS] | 1.85 ± 0.21 kcal/mol | 2.09 ± 0.088 kcal/mol | 1.59 ± 0.2 kcal/mol
7 | SQTIRLELKNPDGRKIRIEIPVQRNPGNGYYYVSVKIEYYDPNGKPKERPITAPFNSPEDAEDQAREALRSA [r9_337_TrROS] | 1.69 ± 0.28 kcal/mol | 1.63 ± 0.12 kcal/mol | 2.06 ± 0.16 kcal/mol
8 | SRIKITVKPKPDGNFYIKIWFPNNGKPFIFPIKNPDAMDEARDDPGQTIEVPEDYLRSLFPDNFTDVEIVSA [r9_390_TrROS] | 1.25 ± 0.064 kcal/mol | 1.31 ± 0.015 kcal/mol | 1.16 ± 0.12 kcal/mol
9 | SSATVTFTVELPDDSVIVSVRIDAEEYDPGPPWVRVTIEVEIYDKNGELLATLRFEFLLPREVLEELRKSSA [r9_234_TrMRF] | 5.77 ± 0.66 kcal/mol | 4.23 ± 0.14 kcal/mol | 5.74 ± 0.3 kcal/mol
10 | SSDIKIEIDIERNDDGYLTFTIEIRHPDPQQLVDAAKEIILELFPPGVNIDVEPHPDGWVKAPIMFPLPKSA [r9_646_TrROS] | 1.35 ± 0.25 kcal/mol | 0.735 ± 0.13 kcal/mol | 1.63 ± 0.086 kcal/mol
11 | SSEKEVEVTIKIPLYYERPDGTIEEYDIEIKVKVKIDNGGFIAENLEEAIREVLEKLNIPEGHPDAPYFNKS [r1_175_TrMRF] | 1.02 ± 0.33 kcal/mol | 1.72 ± 0.19 kcal/mol | 0.155 ± 0.48 kcal/mol
12 | SSITETKEFLLESEEEVEAIAEELKKPGVEVEVEVKEVERVDKKTGKKKKALKATITVKIPLPPPEKGKLSA [r9_962_JUSTAS] | 0.794 ± 0.15 kcal/mol | 0.79 ± 0.054 kcal/mol | 0.742 ± 0.069 kcal/mol
13 | SSLGPGELEVTELETTEEELPDGTTLKRTLSREIVPDPAGAGRVVLTETLSTVPPDGSETVTTLSVTVLASA [r9_838_JUSTAS] | -0.138 ± 0.16 kcal/mol | -0.078 ± 0.13 kcal/mol | -0.0934 ± 0.17 kcal/mol
14 | SSMPLEEIVERVAEELGIPEEELERIESVDPGVVDPSPEGPTRVELRITLRDPHSDTTTEYRVEVEDPGGSA [r9_230_JUSTAS] | -0.501 ± 0.29 kcal/mol | -0.784 ± 0.3 kcal/mol | -0.503 ± 0.46 kcal/mol
15 | SSMSIEIKEVEEDPVGSEAKPRVVREKVTLEGTEVELTVTVTEAPSGETTVTTTLTFPGSGKTFSFTFDTSA [r9_241_JUSTAS] | 2.62 ± 0.058 kcal/mol | 1.9 ± 0.052 kcal/mol | 3.05 ± 0.044 kcal/mol
16 | SSMSMKTITIDATFTSEEEAKKYAEEIKKKIPPENIKNISISSTPELVTGDGTYKGEKIKVTITIEIVKKSA [r9_605_JUSTAS] | 1.71 ± 0.26 kcal/mol | 1.64 ± 0.17 kcal/mol | 1.74 ± 0.2 kcal/mol
17 | SSPALDEKYTAKVDAKVTSPEGKPLATFTIDVLTEEEAKKKIEEFVKELAEKLGRPDLPVTISNITIERVSA [r9_376_JUSTAS] | 0.679 ± 0.25 kcal/mol | 0.519 ± 0.077 kcal/mol | 0.921 ± 0.16 kcal/mol
18 | SSPANITTTTTSSPLNLETFDPKTGKKKRINYTLTTETVTFPGGEVVTTTVLKDASTGKVTTLSTTVTPTSA [r9_402_JUSTAS] | 1.08 ± 0.12 kcal/mol | 0.773 ± 0.081 kcal/mol | 1.22 ± 0.14 kcal/mol

Row | Sequence | folding stability dG unfold [1] | folding stability dG unfold [2] | folding stability dG unfold [3]
19 | SSPEEMAEKLAKELNFDKIEIKTEKLDLPSGPSEATVATAKLYNPATGKEYVVKILKFPDGSYEIVIEKKSA [r9_724_JUSTAS] | 2.28 ± 0.07 kcal/mol | 1.44 ± 0.042 kcal/mol | 2.627 ± 0.015 kcal/mol
20 | SSPLINILTVEVTAETPSGGSFSKTFTFPASKYTEEEIREKIKEEYPDLTDIKITPKVTKIPPGPKILLASA [r9_841_JUSTAS] | 1.76 ± 0.18 kcal/mol | 1.29 ± 0.07 kcal/mol | 1.98 ± 0.18 kcal/mol
21 | SSSLDYVFKDIDPSSPNKLTLSEIKPVPESDKVVNKIVFPTKTILVTFDSAEDAEAHIGLLLKLFGSPPESA [r9_258_TrMRF] | 0.852 ± 0.1 kcal/mol | 0.66 ± 0.044 kcal/mol | 0.924 ± 0.12 kcal/mol
22 | SSSSEVKVERYPDSYLVTITIREGDKEVGTLSYPLNGSLTVEEVLEEVQKRYPDLPVSFSTSVPVPPPAPSA [r9_364_JUSTAS] | 3.8 ± 0.13 kcal/mol | 3.46 ± 0.11 kcal/mol | 3.88 ± 0.073 kcal/mol
23 | SSSSMKTITLEKKITSPEEAEALREELLKKGYEVEVKVYPHPDSYIAKITVTIEVPPPPLSPTNPSALLKSA [r9_863_JUSTAS] | 0.967 ± 0.22 kcal/mol | 1.19 ± 0.061 kcal/mol | 0.913 ± 0.2 kcal/mol
24 | SSSSSRTIEYPDSTLELTFTTTPLPDDTYRVPVQVTRYDPVTKTWSTRNLTVPFPPSDPEAAAEAVIARLLS [r1_171_JUSTAS] | 0.355 ± 0.092 kcal/mol | 0.11 ± 0.1 kcal/mol | 0.39 ± 0.11 kcal/mol
25 | SSSVSVTRTRDPRTGRLVVTVSMNYEDDPEEAVEAAKALLEAAGLDVAEVLSITVDPSTGTVTIPIAVAPSA [r9_876_JUSTAS] | 3.05 ± 0.064 kcal/mol | 2.79 ± 0.062 kcal/mol | 3.15 ± 0.076 kcal/mol
26 | SSVPADAAPVTVTETVTVTLPVDTATGGVPEERVAAAREAAAARGFTEFTVTTDPAAGTVTVTVTRTSRVSA [r9_201_JUSTAS] | 1.11 ± 0.054 kcal/mol | 0.77 ± 0.055 kcal/mol | 1.27 ± 0.035 kcal/mol
27 | SSYTVLEEKVESDPNKDSLTYLTLKTPDGRELTVTEPVKKVDDSWITNSTLTDPVGGRTTTSTTTVKLSGSA [r9_269_JUSTAS] | -0.487 ± 0.13 kcal/mol | -0.977 ± 0.29 kcal/mol | -0.409 ± 0.17 kcal/mol
28 | STIMIMFRSPEDLEKFLNEAKEMIRNGKNVPITIMAHGPNGRYWMFTIDIKMDPDGNPKIEIEWEPVPPDSA [r9_1023_TrROS] | 3.89 ± 0.099 kcal/mol | 3.23 ± 0.1 kcal/mol | 4.24 ± 0.043 kcal/mol
29 | STSTTITYPTLTISVEESVLPDGTPRYTVTLHLPEKGVSIPVEVDSAAEAEEAVREAIRKLLPDETVEEESA [r9_749_JUSTAS] | 2.23 ± 0.2 kcal/mol | 2.24 ± 0.12 kcal/mol | 2.24 ± 0.16 kcal/mol
30 | SVIIYMPWDNIPNMLRQLKALAKNGQKPVTIYMPVPEDWRRELREWLDDYGITVEPHPDNDWYKIEIEPKSA [r9_600_TrROS] | 3.09 ± 0.077 kcal/mol | 2.54 ± 0.069 kcal/mol | 3.318 ± 0.0095 kcal/mol
31 | SVIKLPIWYPNSPAEQAEEMVQSLARKFMDKYGLKIDVEVETRRDPDGKPRWVRIEATIQYRDEDGKPIFSA [r9_21_TrROS] | 2.07 ± 0.26 kcal/mol | 1.81 ± 0.084 kcal/mol | 2 ± 0.073 kcal/mol
32 | SVPVAPDKTYEIENIEEGNYLIKGLTLTPLPDGSVKIDKDIEPIEIPPKPPPLKYDPVKGGFIKPNDPLLSA [r9_603_JUSTAS] | 0.434 ± 0.14 kcal/mol | 0.319 ± 0.08 kcal/mol | 0.592 ± 0.19 kcal/mol
33 | SWKIKISIERTGDWITVKIWYDNPSELRNAIEMIAEKLGMKVEIDDVSWKRDPNGWYEATITVRIKPGMPSA [r9_102_TrROS] | 3.42 ± 0.16 kcal/mol | 3.27 ± 0.18 kcal/mol | 3.31 ± 0.077 kcal/mol
34 | SWQIKEVFPLPNGMRIKVYIHPDGYVQVSIRMYRPNPNDGKPQRQRFSITVPLPPGKPPSIDDILDYILNSA [r9_614_TrROS] | 2.44 ± 0.22 kcal/mol | 2.36 ± 0.051 kcal/mol | 2.24 ± 0.21 kcal/mol
35 | SWTFPILIRFPFDDPEDLDKAREMAEDLVRYLAEEFGWPVKIDKVKYERNPENGWVWIRAEITVTPPDDVSA [r9_105_TrROS] | 4.9 ± 0.11 kcal/mol | 3.62 ± 0.08 kcal/mol | 5.31 ± 0.098 kcal/mol
36 | SWWYIVTIKIWKPGNGEPKGPIMLFVRSPEEAEEIAEEPAPEHGYDVEVNVKRIPPDDMDDPEQMKEMMNSA [r9_864_TrROS] | 2.07 ± 0.37 kcal/mol | 1.82 ± 0.035 kcal/mol | 2.56 ± 0.13 kcal/mol
